This note sets out measurements from patent US20090074722A1, “Products and methods for treating PTP lar diseases” (MAX-PLANCK-GESELLSCHAFT ZUR, priority 1999, published 2009).

The test deals with T1, tyrosine phosphorylated β-catenin (Homo sapiens, UniProt P35222).
T1 construct: expressed in transfected cells; host or cells: human 293 embryonic kidney cells, transient; CMV-promoter vector; immunoprecipitated with anti-β-catenin antibody
T1 sequence (P35222 1-781): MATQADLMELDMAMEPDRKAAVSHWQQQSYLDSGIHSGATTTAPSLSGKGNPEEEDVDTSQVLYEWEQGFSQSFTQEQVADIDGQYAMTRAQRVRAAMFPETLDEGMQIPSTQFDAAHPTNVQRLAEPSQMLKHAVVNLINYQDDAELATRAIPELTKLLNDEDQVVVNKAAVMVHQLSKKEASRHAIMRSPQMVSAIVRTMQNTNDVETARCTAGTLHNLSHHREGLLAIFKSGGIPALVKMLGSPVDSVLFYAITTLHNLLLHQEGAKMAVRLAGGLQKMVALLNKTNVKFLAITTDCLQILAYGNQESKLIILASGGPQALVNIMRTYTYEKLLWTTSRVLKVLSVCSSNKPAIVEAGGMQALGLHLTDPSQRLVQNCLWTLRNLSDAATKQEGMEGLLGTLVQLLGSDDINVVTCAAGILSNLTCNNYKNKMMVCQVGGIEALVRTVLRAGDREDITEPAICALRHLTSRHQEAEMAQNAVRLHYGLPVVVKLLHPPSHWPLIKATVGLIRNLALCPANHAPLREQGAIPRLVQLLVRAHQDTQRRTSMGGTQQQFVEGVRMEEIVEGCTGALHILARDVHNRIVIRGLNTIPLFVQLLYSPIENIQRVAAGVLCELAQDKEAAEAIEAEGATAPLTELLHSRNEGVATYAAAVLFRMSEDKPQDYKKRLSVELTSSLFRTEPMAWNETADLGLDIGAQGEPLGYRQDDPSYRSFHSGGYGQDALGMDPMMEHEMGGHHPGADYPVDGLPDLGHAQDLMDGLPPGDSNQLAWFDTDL
The experiment in a line: In vitro dephosphorylation assay. The format is biochemical. The conditions noted are these: 200 ng GST fusion protein, 25° C.; within the first five minutes; anti-phosphotyrosine Western blot. How it is done:
After 24 h of serum starvation, the cells were stimulated with pervanadate before lysis. β-catenin was subsequently immunoprecipitated with an anti-β-catenin antibody, and precipitates were incubated for the indicated time intervals with GST-PTP LAR cytoplasmic fusion protein (left), GST-PTP LAR PTP D1 C1522S-mutant (middle) or GST-PTP LAR PTP D2 C1813S-mutant (right). Reactions were terminated after the indicated periods of time, and proteins were separated by SDS-PAGE. Tyrosine phosphorylation levels of […] were analyzed by Western blotting with an anti-phosphotyrosine antibody (top). […] Arrows indicate the proteins of interest.
In Vitro Dephosphorylation Assay—β-catenin was transiently overexpressed in human 293 embryonic kidney cells. Cells were serum-starved, treated with pervanadate ([…]/0.1 mM Na-orthovanadate) for 10 minutes and lysed. Immunoprecipitations were performed as described above except that HNTG without pyrophosphate, ammonium-molybdate, and Na-orthovanadate was used. PTP activity towards tyrosine phosphorylated β-catenin was assayed in 200 μL reactions at 25° C. containing 25 mM HEPES, pH 7.5, 5 mM EDTA, 10 mM DTT, and 1 mg/mL BSA with 200 ng of GST-hPTP LAR cytoplasmic, GST-hPTP LAR D1 C1522S, or GST-hPTP LAR D2 C1813S added. Reactions were stopped by washing with HNTG and subsequently separated by SDS-PAGE. The tyrosine phosphorylation status was analyzed by Western blotting using anti-phosphotyrosine antibody.
The association of β-catenin and plakoglobin with PTP LAR prompted the investigation of whether these proteins could represent actual substrates for PTP LAR. […] After different time intervals, the reactions were terminated and analyzed with an anti-phosphotyrosine specific antibody.

B1: GST-PTP LAR PTP D2 C1813S: GST fusion of PTP LAR cytoplasmic domain with inactivated PTP domain 2 (protein)
chain: KRKRTHSPSSKDEQSIGLKDSLLAHSSDPVEMRRLNYQTPGMRDHPPIPITDLADNIERLKANDGLKFSQEYESIDPGQQFTWENSNLEVNKPKNRYANVIAYDHSRVILTSIDGVPGSDYINANYIDGYRKQNAYIATQGPLPETMGDFWRMVWEQRTATVVMMTRLEEKSRVKCDQYWPARGTETCGLIQVTLLDTVELATYTVRTFALHKSGSSEKRELRQFQFMAWPDHGVPEYPTPILAFLRRVKACNPLDAGPMVVHCSAGVGRTGCFIVIDAMLERMKHEKTVDIYGHVTCMRSQRNYMVQTEDQYVFIHEALLEAATCGHTEVPARNLYAHIQKLGQVPPGESVTAMELEFKLLASSKAHTSRFISANLPCNKFKNRLVNIMPYELTRVCLQPIRGVEGSDYINASFLDGYRQQKAYIATQGPLAESTEDFWRMLWEHNSTIIVMLTKLREMGREKCHQYWPAERSARYQYFVVDPMAEYNMPQYILREFKVTDARDGQSRTIRQFQFTDWPEQGVPKTGEGFIDFIGQVHKTKEQFGQDGPITVHCSAGVGRTGVFITLSIVLERMRYEGVVDMFQTVKTLRTQRPAMVQTEDQYQLCYRAALEYLGSFDHYAT
For B1, the “tyrosine phosphorylation signal of β-catenin” value is “significant reduction in the tyrosine phosphorylation signal”.

B2: GST-PTP LAR PTP D1 C1522S: GST fusion of PTP LAR cytoplasmic domain with catalytically inactivated PTP domain 1 (protein)
chain: B1 chain
On to B2, for which the “tyrosine phosphorylation signal of β-catenin” value is given as “No change in phosphorylation levels”.
